Measured values reported in paper PMC5533585.

Target: cytoplasmic dynein-1 heavy chain (human (endogenous in HEK-293)) (UniProt Q14204)
Assay: co-IP + SEC; FLAG immunoprecipitate (GF buffer: 50 mM Tris-HCl pH 8.0, 150 mM NaCl, glycerol, 0.2% Triton X-100) run on Superose 6 Increase 10/300 GL; fractions blotted with anti-FLAG, anti-HC, anti-p150; percent = intensity incorporated/(free + incorporated)

Sequence of UniProt Q14204 (Q14204 whole entry): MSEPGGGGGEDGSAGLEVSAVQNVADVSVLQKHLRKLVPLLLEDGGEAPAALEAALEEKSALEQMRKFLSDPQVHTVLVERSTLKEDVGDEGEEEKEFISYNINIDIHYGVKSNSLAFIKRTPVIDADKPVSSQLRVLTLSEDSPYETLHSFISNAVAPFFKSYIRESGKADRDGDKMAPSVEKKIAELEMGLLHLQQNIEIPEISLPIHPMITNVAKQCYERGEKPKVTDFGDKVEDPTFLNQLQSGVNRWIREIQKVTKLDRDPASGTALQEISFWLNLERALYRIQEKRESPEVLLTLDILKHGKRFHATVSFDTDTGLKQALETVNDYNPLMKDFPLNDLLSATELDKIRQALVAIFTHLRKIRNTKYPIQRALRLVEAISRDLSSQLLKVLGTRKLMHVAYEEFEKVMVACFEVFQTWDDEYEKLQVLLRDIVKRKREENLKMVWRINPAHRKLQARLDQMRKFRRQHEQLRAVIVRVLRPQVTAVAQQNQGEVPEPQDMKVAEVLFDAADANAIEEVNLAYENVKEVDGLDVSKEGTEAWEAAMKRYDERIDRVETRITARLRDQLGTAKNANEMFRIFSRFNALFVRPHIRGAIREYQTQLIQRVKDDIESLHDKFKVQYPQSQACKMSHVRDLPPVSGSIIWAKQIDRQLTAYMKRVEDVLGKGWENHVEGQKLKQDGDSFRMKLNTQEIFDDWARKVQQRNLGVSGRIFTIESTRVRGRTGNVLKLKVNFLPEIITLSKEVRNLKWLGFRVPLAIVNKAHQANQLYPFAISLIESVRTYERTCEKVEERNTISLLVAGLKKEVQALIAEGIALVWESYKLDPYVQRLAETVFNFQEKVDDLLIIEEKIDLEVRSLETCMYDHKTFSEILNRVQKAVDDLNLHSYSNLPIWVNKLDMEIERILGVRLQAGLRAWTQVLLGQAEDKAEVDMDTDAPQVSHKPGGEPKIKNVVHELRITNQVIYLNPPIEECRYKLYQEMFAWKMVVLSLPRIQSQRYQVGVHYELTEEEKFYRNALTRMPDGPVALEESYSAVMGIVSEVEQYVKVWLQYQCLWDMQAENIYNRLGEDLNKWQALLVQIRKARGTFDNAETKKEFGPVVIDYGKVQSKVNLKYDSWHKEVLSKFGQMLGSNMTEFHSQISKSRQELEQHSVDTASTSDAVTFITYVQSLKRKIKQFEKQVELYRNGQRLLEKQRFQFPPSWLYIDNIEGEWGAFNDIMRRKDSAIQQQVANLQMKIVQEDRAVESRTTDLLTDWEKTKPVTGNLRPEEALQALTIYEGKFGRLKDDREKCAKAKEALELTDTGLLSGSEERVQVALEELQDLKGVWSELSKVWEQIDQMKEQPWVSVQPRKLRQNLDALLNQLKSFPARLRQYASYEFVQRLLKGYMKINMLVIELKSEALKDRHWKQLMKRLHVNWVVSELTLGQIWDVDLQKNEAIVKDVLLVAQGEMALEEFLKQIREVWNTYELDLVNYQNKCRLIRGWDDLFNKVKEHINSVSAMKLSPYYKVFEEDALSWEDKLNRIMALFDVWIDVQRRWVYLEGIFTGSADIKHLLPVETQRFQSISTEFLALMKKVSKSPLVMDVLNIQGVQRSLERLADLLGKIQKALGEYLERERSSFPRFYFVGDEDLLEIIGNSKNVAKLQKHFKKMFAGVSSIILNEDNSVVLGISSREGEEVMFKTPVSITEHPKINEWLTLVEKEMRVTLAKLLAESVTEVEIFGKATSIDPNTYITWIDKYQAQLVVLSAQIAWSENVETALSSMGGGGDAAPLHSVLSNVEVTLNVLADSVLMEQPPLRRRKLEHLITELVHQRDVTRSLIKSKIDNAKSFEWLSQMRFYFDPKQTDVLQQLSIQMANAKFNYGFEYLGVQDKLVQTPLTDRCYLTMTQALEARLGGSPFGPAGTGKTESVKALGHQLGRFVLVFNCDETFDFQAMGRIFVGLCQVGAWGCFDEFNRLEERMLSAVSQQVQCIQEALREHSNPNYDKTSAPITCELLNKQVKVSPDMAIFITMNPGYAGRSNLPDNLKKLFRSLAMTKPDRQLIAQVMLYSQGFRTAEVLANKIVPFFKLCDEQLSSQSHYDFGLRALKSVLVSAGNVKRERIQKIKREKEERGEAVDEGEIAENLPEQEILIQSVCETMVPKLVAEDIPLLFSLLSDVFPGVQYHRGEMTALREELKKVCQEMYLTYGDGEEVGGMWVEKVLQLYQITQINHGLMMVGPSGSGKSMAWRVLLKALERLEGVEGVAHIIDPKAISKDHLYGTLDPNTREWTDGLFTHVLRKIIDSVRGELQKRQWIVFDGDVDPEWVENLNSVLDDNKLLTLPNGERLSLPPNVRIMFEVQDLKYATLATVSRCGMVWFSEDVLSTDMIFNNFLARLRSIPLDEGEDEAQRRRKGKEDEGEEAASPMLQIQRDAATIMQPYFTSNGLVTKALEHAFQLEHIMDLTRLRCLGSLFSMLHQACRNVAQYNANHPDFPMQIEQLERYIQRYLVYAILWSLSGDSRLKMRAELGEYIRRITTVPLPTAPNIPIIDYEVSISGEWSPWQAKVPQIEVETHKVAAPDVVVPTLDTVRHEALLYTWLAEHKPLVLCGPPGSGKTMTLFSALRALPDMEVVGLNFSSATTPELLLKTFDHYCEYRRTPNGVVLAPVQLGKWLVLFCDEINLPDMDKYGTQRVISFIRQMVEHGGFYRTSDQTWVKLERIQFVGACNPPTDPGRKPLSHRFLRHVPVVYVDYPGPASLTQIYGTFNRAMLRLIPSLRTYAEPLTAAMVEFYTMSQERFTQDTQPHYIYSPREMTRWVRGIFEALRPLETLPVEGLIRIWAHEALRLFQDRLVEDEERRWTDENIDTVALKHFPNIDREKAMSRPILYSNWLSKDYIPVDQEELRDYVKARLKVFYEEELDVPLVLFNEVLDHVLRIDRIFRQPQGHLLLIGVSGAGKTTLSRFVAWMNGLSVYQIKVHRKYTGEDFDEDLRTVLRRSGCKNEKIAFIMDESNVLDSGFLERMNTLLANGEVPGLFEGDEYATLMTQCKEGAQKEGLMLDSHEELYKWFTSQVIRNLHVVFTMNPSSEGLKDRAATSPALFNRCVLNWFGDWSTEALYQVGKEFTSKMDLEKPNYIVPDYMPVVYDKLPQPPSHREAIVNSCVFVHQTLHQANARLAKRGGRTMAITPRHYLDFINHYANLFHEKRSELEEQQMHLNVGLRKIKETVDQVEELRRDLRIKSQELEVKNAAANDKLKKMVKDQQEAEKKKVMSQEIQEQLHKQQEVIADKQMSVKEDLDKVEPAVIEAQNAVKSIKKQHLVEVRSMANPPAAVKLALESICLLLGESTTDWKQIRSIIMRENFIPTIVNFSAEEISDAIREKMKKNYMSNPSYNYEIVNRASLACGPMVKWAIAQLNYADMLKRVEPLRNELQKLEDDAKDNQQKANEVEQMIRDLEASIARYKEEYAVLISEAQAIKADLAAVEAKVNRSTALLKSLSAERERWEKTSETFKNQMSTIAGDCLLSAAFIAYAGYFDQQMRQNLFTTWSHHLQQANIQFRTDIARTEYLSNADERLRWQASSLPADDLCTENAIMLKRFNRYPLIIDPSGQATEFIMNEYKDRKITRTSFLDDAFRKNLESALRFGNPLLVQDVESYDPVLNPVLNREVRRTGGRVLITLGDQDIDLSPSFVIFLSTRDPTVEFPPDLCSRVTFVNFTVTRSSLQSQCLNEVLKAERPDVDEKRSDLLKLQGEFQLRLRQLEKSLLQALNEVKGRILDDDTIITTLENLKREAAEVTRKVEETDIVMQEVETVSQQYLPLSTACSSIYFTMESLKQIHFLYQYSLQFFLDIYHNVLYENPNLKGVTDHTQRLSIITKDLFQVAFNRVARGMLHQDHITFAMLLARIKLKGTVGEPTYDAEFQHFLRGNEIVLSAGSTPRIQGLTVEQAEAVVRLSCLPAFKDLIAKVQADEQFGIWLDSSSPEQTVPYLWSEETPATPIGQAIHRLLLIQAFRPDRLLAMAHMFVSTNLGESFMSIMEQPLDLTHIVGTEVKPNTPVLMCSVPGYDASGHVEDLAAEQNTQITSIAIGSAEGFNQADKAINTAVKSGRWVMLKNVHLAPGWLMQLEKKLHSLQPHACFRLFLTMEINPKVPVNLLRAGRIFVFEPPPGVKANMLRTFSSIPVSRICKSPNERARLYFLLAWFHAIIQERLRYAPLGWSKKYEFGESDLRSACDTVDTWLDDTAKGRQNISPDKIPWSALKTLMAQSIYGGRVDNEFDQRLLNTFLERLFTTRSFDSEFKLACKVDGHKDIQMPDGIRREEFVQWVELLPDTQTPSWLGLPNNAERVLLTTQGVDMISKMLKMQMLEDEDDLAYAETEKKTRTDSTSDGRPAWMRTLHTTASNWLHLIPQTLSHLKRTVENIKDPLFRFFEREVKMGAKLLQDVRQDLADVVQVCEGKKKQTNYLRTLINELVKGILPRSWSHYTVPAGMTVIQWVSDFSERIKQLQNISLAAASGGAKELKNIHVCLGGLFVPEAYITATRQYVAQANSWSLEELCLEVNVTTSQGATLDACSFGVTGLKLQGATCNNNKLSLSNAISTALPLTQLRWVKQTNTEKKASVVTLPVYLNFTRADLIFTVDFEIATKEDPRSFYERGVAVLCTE

IC2-BioID-3×FLAG (natural protein)
percent of the tagged subunit incorporated into the complex: 51%
